Where a chain is given by its changes, count along the chain named. Numbers in names are those of the source.
T1: denatured glycoprotein RNase B, P61823
T1 chain: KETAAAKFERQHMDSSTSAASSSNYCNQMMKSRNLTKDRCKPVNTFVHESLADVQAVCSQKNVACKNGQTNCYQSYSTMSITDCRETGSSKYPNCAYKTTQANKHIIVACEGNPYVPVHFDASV

B1: PNGase F, Peptide-N4-(acetyl-β-D-glucosaminyl)-asparagine amidase, wild type (D60) (protein)
chain: APADNTVNIKTFDKVKNAFGDGLSQSAEGTFTFPADVTTVKTIKMFIKNECPNKTCDEWDRYANVYVKNKTTGEWYEIGRFITPYWVGTEKLPRGLEIDVTDFKSLLSGNTELKIYTETWLAKGREYSVDFDIVYGTPDYKYSAVVPVIQYNKSSIDGVPYGKAHTLGLKKNIQLPTNTEKAYLRTTISGWGHAKPYDAGSRGCAEWCFRTHTIAINNANTFQHQLGALGCSANPINNQSPGNWAPDRAGWCPGMAVPTRIDVLNNSLTGSTFSYEYKFQSWTNNGTNGDAFYAISSFVIAKSNTPISAPVVTN
B2: PNGase F D60A mutant (enzyme)
chain: B1 chain with D60A
B3: PNGase F D60A/E206K mutant (enzyme)
chain: B1 chain with D60A, E206K
B4: denatured glycoprotein RNase B (enzyme)
chain: T1 chain
modifications: a single N-glycosylation site predominantly occupied by high mannose oligosaccharides; protein denatured
notes: Recognition by the PNGase F mutants and by Con A goes through the N-linked glycan on the protein; also called denatured RNase B; dRNAse B
B5: PNGase F E206A mutant (enzyme)
chain: B1 chain with E206A
B6: PNGase F D60A/E206R mutant (enzyme)
chain: B1 chain with D60A, E206R
B7: PNGase F D60A/R125A mutant (enzyme)
chain: B1 chain with D60A, R125A
B8: PNGase F D60A/E206Q mutant (enzyme)
chain: B1 chain with D60A, E206Q
B9: PNGase F D60A/D57A mutant (enzyme)
chain: B1 chain with D57A, D60A
B10: PNGase F D60N mutant (enzyme)
chain: B1 chain with D60N
B11: PNGase F D60A/E206A mutant (enzyme)
chain: B1 chain with D60A, E206A

Legend:
[1] = target: denatured glycoprotein RNase B (UniProt P61823); assay: reference value of Table 7
[2] = target: T1, denatured glycoprotein RNase B, P61823; assay: enzyme Km of the wild type, used as reference for the SPR Kd values
[3] = target: B4; assay: SPR Kd against wild type Km
PNGase F D60A mutant = target: B2; assay: SPR, denatured RNase B
[4] = target: B3; assay: SPR, denatured RNase B
[5] = target: B6; assay: SPR, denatured RNase B
[6] = target: B8; assay: SPR, denatured RNase B
[7] = target: B11; assay: SPR, denatured RNase B
PNGase F E206A mutant = target: B5; assay: SPR, denatured RNase B
[8] = target: B7; assay: SPR, denatured RNase B
[9] = target: B9; assay: SPR, denatured RNase B
PNGase F D60N mutant = target: B10; assay: SPR, denatured RNase B

For “PNGase F, Peptide-N4-(acetyl-β-D-glucosaminyl)-asparagine amidase, wild type (D60) (from UniProt P21163 41-354) (enzyme)”, the Relative Enhancement (relative to wild type) [1] was 1 fold.

B1 gave a Km (printed in the Kd column, footnote a) [2] of 6400 µM.

In the case of B2, the “Relative Enhancement (relative to wild type)” value (from here on “Relative Enhancement”) [3] is reported as 580 fold.

In the case of B3, the “Relative Enhancement” value [3] is reported as 360 fold.

Molecule B4 has a Kd (PNGase F D60A mutant) of 11 µM, a Kd [4] of 18 µM and a Kd [5] of 27 µM. The Kd [6] was 18 µM, the Kd [7] was 20 µM and the Kd (PNGase F E206A mutant) was 11 µM. The Kd [8] was 18 µM, the Kd [9] was 7 µM and the Kd (PNGase F D60N mutant) was 21 µM.

B5 was tested, and the “Relative Enhancement” value [3] was 580 fold.

In the case of B6, the “Relative Enhancement” value [3] is reported as 240 fold.

B7 was tested, and the “Relative Enhancement” value [3] was 360 fold.

For B8, the “Relative Enhancement” value [3] was 360 fold.

In the case of B9, the “Relative Enhancement” value [3] is reported as 910 fold.

In the case of B10, the “Relative Enhancement” value [3] is reported as 290 fold.

B11 was tested, and the “Relative Enhancement” value [3] was 320 fold.
